The record followed here is patent publication US20150147274A1 (CANCER RESEARCH TECHNOLOGY, published 2015).

To fix the notation:
B1: 112_H2 (scFv)
scFv: QMQLVQSGAEVKKPGAPVKVSCKVSGYTFTDYYMHWVQQAPGKGLEWMGLVDPEDGETIYAEKFQGRVTITADTSTDTAYMELSSLRSEDTAVYYCATDATTPYWGMQVWGQGTLVTVSSLEGGGGSGGGGSGGGASDIQMTQSPSSLSASVGDRVTITCQASQDISNYLNWYQQKPGRAPKVLIYDASNLETGVPSRFSGSGSGTEFTLTISNLRPDDFATYYCQQGDSFPLTFGGGTKVEIK
notes: not shown: 6xHis/tri-FLAG tags
B2: 107_A3 (scFv)
scFv: QMQLVQSGAEVKKPGAPVKVSCKVSGYTFTDYYMHWVQQAPGKGLEWMGLVDPEDGETIYAEKFQGRVTITADTSTDTAYMELSSLRSEDTAVYYCATDATTAYWGMQKWGQGTLVTVSSLEGGGGSGGGGSGGGASDIQMTQSPSSLSASVGDRVTITCQASQDISNYLNWYQQKPGRAPKVLIYDASNLETGVPSRFSGSGSGTEFTLTISNLRPDDFATYYCQQGDSFPLTFGGGTKVEIK
notes: as for B1
B3: 107_A4 (scFv)
scFv: QMQLVQSGAEVKKPGAPVKVSCKVSGYTFTDYYMHWVQQAPGKGLEWMGLVDPEDGETIYAEKFQGRVTITADTSTDTAYMELSSLRSEDTAVYYCATDATTPYWFPYHWGQGTLVTVSSLEGGGGSGGGGSGGGASDIQMTQSPSSLSASVGDRVTITCQASQDISNYLNWYQQKPGRAPKVLIYDASNLETGVPSRFSGSGSGTEFTLTISNLRPDDFATYYCQQGDSFPLTFGGGTKVEIK
notes: as for B1
B4: 107_A2 (scFv)
scFv: QMQLVQSGAEVKKPGAPVKVSCKVSGYTFTDYYMHWVQQAPGKGLEWMGLVDPEDGETIYAEKFQGRVTITADTSTDTAYMELSSLRSEDTAVYYCATDATTPYWGMQSWGQGTLVTVSSLEGGGGSGGGGSGGGASDIQMTQSPSSLSASVGDRVTITCQASQDISNYLNWYQQKPGRAPKVLIYDASNLETGVPSRFSGSGSGTEFTLTISNLRPDDFATYYCQQGDSFPLTFGGGTKVEIK
notes: as for B1
B5: 107_B2 (scFv)
scFv: QMQLVQSGAEVKKPGAPVKVSCKVSGYTFTDYYMHWVQQAPGKGLEWMGLVDPEDGETIYAEKFQGRVTITADTSTDTAYMELSSLRSEDTAVYYCATDATTPYWGMQMWGQGTLVTVSSLEGGGGSGGGGSGGGASDIQMTQSPSSLSASVGDRVTITCQASQDISNYLNWYQQKPGRAPKVLIYDASNLETGVPSRFSGSGSGTEFTLTISNLRPDDFATYYCQQGDSFPLTFGGGTKVEIK
notes: as for B1
B6: 107_A6 (scFv)
scFv: QMQLVQSGAEVKKPGAPVKVSCKVSGYTFTDYYMHWVQQAPGKGLEWMGLVDPEDGETIYAEKFQGRVTITADTSTDTAYMELSSLRSEDTAVYYCATDATTPYWTPFVWGQGTLVTVSSLEGGGGSGGGGSGGGASDIQMTQSPSSLSASVGDRVTITCQASQDISNYLNWYQQKPGRAPKVLIYDASNLETGVPSRFSGSGSGTEFTLTISNLRPDDFATYYCQQGDSFPLTFGGGTKVEIK
notes: as for B1
B7: 107_A11 (scFv)
scFv: QMQLVQSGAEVKKPGAPVKVSCKVSGYTFTDYYMHWVQQAPGKGLEWMGLVDPEDGETIYAEKFQGRVTITADTSTDTAYMELSSLRSEDTAVYYCATDATTPYWGMAWWGQGTLVTVSSLEGGGGSGGGGSGGGASDIQMTQSPSSLSASVGDRVTITCQASQDISNYLNWYQQKPGRAPKVLIYDASNLETGVPSRFSGSGSGTEFTLTISNLRPDDFATYYCQQGDSFPLTFGGGTKVEIK
notes: as for B1
B8: 107_B6 (scFv)
scFv: QMQLVQSGAEVKKPGAPVKVSCKVSGYTFTDYYMHWVQQAPGKGLEWMGLVDPEDGETIYAEKFQGRVTITADTSTDTAYMELSSLRSEDTAVYYCATDATTPYWGMQKWGQGTLVTVSSLEGGGGSGGGGSGGGASDIQMTQSPSSLSASVGDRVTITCQASQDISNYLNWYQQKPGRAPKVLIYDASNLETGVPSRFSGSGSGTEFTLTISNLRPDDFATYYCQQGDSFPLTFGGGTKVEIK
notes: as for B1
B9: 107_B3 (scFv)
scFv: QMQLVQSGAEVKKPGAPVKVSCKVSGYTFTDYYMHWVQQAPGKGLEWMGLVDPEDGETIYAEKFQGRVTITADTSTDTAYMELSSLRSEDTAVYYCATDATTPYWGMKMWGQGTLVTVSSLEGGGGSGGGGSGGGASDIQMTQSPSSLSASVGDRVTITCQASQDISNYLNWYQQKPGRAPKVLIYDASNLETGVPSRFSGSGSGTEFTLTISNLRPDDFATYYCQQGDSFPLTFGGGTKVEIK
notes: as for B1
B10: 107_A5 (scFv)
scFv: QMQLVQSGAEVKKPGAPVKVSCKVSGYTFTDYYMHWVQQAPGKGLEWMGLVDPEDGETIYAEKFQGRVTITADTSTDTAYMELSSLRSEDTAVYYCATDATTPYWGMSKWGQGTLVTVSSLEGGGGSGGGGSGGGASDIQMTQSPSSLSASVGDRVTITCQASQDISNYLNWYQQKPGRAPKVLIYDASNLETGVPSRFSGSGSGTEFTLTISNLRPDDFATYYCQQGDSFPLTFGGGTKVEIK
notes: as for B1
B11: 107_B8 (scFv)
scFv: QMQLVQSGAEVKKPGAPVKVSCKVSGYTFTDYYMHWVQQAPGKGLEWMGLVDPEDGETIYAEKFQGRVTITADTSTDTAYMELSSLRSEDTAVYYCATDATTPYWGMAEWGQGTLVTVSSLEGGGGSGGGGSGGGASDIQMTQSPSSLSASVGDRVTITCQASQDISNYLNWYQQKPGRAPKVLIYDASNLETGVPSRFSGSGSGTEFTLTISNLRPDDFATYYCQQGDSFPLTFGGGTKVEIK
notes: as for B1
B12: 107_B4 (scFv)
scFv: QMQLVQSGAEVKKPGAPVKVSCKVSGYTFTDYYMHWVQQAPGKGLEWMGLVDPEDGETIYAEKFQGRVTITADTSTDTAYMELSSLRSEDTAVYYCATDATTPYWFPNVWGQGTLVTVSSLEGGGGSGGGGSGGGASDIQMTQSPSSLSASVGDRVTITCQASQDISNYLNWYQQKPGRAPKVLIYDASNLETGVPSRFSGSGSGTEFTLTISNLRPDDFATYYCQQGDSFPLTFGGGTKVEIK
notes: as for B1
B13: 107_A10 (scFv)
scFv: QMQLVQSGAEVKKPGAPVKVSCKVSGYTFTDYYMHWVQQAPGKGLEWMGLVDPEDGETIYAEKFQGRVTITADTSTDTAYMELSSLRSEDTAVYYCATDATTPYWGMQEWGQGTLVTVSSLEGGGGSGGGGSGGGASDIQMTQSPSSLSASVGDRVTITCQASQDISNYLNWYQQKPGRAPKVLIYDASNLETGVPSRFSGSGSGTEFTLTISNLRPDDFATYYCQQGDSFPLTFGGGTKVEIK
notes: as for B1
B14: 107_A9 (scFv)
scFv: QMQLVQSGAEVKKPGAPVKVSCKVSGYTFTDYYMHWVQQAPGKGLEWMGLVDPEDGETIYAEKFQGRVTITADTSTDTAYMELSSLRSEDTAVYYCATDATTPYWGMMTWGQGTLVTVSSLEGGGGSGGGGSGGGASDIQMTQSPSSLSASVGDRVTITCQASQDISNYLNWYQQKPGRAPKVLIYDASNLETGVPSRFSGSGSGTEFTLTISNLRPDDFATYYCQQGDSFPLTFGGGTKVEIK
notes: as for B1
B15: 107_B10 (scFv)
scFv: QMQLVQSGAEVKKPGAPVKVSCKVSGYTFTDYYMHWVQQAPGKGLEWMGLVDPEDGETIYAEKFQGRVTITADTSTDTAYMELSSLRSEDTAVYYCATDATTPYWGMRVWGQGTLVTVSSLEGGGGSGGGGSGGGASDIQMTQSPSSLSASVGDRVTITCQASQDISNYLNWYQQKPGRAPKVLIYDASNLETGVPSRFSGSGSGTEFTLTISNLRPDDFATYYCQQGDSFPLTFGGGTKVEIK
notes: as for B1
B16: 107_B1 (scFv)
scFv: QMQLVQSGAEVKKPGAPVKVSCKVSGYTFTDYYMHWVQQAPGKGLEWMGLVDPEDGETIYAEKFQGRVTITADTSTDTAYMELSSLRSEDTAVYYCATDATHIYWNMDIWGQGTLVTVSSLEGGGGSGGGGSGGGASDIQMTQSPSSLSASVGDRVTITCQASQDISNYLNWYQQKPGRAPKVLIYDASNLETGVPSRFSGSGSGTEFTLTISNLRPDDFATYYCQQGDSFPLTFGGGTKVEIK
notes: as for B1
B17: 107_B11 (scFv)
scFv: QMQLVQSGAEVKKPGAPVKVSCKVSGYTFTDYYMHWVQQAPGKGLEWMGLVDPEDGETIYAEKFQGRVTITADTSTDTAYMELSSLRSEDTAVYYCATDATTPYWGMAMWGQGTLVTVSSLEGGGGSGGGGSGGGASDIQMTQSPSSLSASVGDRVTITCQASQDISNYLNWYQQKPGRAPKVLIYDASNLETGVPSRFSGSGSGTEFTLTISNLRPDDFATYYCQQGDSFPLTFGGGTKVEIK
notes: as for B1
B18: 107_A12 (scFv)
scFv: QMQLVQSGAEVKKPGAPVKVSCKVSGYTFTDYYMHWVQQAPGKGLEWMGLVDPEDGETIYAEKFQGRVTITADTSTDTAYMELSSLRSEDTAVYYCATDATTPYWWMAKWGQGTLVTVSSLEGGGGSGGGGSGGGASDIQMTQSPSSLSASVGDRVTITCQASQDISNYLNWYQQKPGRAPKVLIYDASNLETGVPSRFSGSGSGTEFTLTISNLRPDDFATYYCQQGDSFPLTFGGGTKVEIK
notes: as for B1
B19: 107_B7 (scFv)
scFv: QMQLVQSGAEVKKPGAPVKVSCKVSGYTFTDYYMHWVQQAPGKGLEWMGLVDPEDGETIYAEKFQGRVTITADTSTDTAYMELSSLRSEDTAVYYCATDATTPYWCMRAWGQGTLVTVSSLEGGGGSGGGGSGGGASDIQMTQSPSSLSASVGDRVTITCQASQDISNYLNWYQQKPGRAPKVLIYDASNLETGVPSRFSGSGSGTEFTLTISNLRPDDFATYYCQQGDSFPLTFGGGTKVEIK
notes: as for B1
B20: 107_B5 (scFv)
scFv: QMQLVQSGAEVKKPGAPVKVSCKVSGYTFTDYYMHWVQQAPGKGLEWMGLVDPEDGETIYAEKFQGRVTITADTSTDTAYMELSSLRSEDTAVYYCATDATTPYWGMQIWGQGTLVTVSSLEGGGGSGGGGSGGGASDIQMTQSPSSLSASVGDRVTITCQASQDISNYLNWYQQKPGRAPKVLIYDASNLETGVPSRFSGSGSGTEFTLTISNLRPDDFATYYCQQGDSFPLTFGGGTKVEIK
notes: as for B1

T1 sequence (P08581 25-928): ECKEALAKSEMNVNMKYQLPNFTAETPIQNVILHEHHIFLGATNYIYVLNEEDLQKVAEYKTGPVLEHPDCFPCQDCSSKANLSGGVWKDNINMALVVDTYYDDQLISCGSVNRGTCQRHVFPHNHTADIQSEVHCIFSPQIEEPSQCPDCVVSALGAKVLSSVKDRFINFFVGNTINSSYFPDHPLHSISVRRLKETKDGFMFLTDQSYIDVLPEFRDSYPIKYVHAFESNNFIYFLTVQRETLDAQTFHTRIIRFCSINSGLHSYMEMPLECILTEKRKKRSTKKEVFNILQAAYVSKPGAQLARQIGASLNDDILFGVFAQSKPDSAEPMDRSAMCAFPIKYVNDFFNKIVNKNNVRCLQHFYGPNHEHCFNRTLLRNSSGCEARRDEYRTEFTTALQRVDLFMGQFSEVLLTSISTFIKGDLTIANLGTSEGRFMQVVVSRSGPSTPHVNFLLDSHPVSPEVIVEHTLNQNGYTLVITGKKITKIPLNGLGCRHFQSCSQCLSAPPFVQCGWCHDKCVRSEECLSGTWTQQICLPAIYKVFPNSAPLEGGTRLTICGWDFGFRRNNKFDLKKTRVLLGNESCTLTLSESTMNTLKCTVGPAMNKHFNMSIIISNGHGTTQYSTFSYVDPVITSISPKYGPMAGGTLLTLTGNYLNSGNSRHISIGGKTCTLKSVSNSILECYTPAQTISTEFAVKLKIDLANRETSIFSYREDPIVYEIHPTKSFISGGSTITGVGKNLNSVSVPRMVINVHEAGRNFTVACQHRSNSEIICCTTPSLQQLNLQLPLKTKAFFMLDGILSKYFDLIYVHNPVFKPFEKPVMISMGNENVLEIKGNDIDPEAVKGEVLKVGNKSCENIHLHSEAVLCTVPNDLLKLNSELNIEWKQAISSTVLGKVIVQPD

The experiment concerns the target T1, MET928 (cMET protein derived from construct 25-928) (human, UniProt P08581 25-928).
T1 construct: MET ectodomain, residues 1-24 are the leader; produced in Lec 8 cells; background text says the ectodomain is furin-cleaved into alpha (25-307) and beta chains; biotinylated form used in selections; also called MET928 extracellular domain; Met extracellular domain
As to the kind of experiment: ELISA, soluble scFv. In general terms: In an ELISA, binding on a coated surface is turned into a signal by an enzyme label.
As to B1, the binding result was “binds”.
As for B2, the binding result is on record as “binds”.
The result for B3 reads “binds”; that for B4, “binds”; that for B5, “binds”.
For B6, the binding result was “binds”.
Take B7: the binding result is on record as “binds”.
Turning to B8, the binding result is recorded as “binds”.
As for B9, the entry is “binds”; as for B10, “binds”.
As for B11, the entry is “binds”; as for B12, “binds”; as for B13, “binds”.
As for B14, the entry is “binds”; as for B15, “binds”; as for B16, “binds”.
Regarding B17, the binding result was “binds”.
The result for B18 reads “binds”; that for B19, “binds”.
As for B20, the entry is “binds”.
